Target: CP* (calprotectin, S100A8 C42S / S100A9 C3S heterodimer) (UniProt P05109)
Experiment: crystal structure; Ca2+-loaded CP* with 0.7 equivalents of Zn2+; 20 mM Tris pH 7.5, 100 mM NaCl, 2 mM MgCl2; hanging drop, 20°C, 1.0M sodium citrate (pH 5.2), 28% MPD; 1.87 Å

How did the stoichiometry N turn out when “CP* (calprotectin, S100A8 C42S / S100A9 C3S heterodimer) (from UniProt P05109 1-87; P06702 5-112) (complex)” was run?
The stoichiometry N was 2.

Source: paper PMC12432413
